We go through two substances from PMC11323955.

The target of the assay is MBP-MlCYC2A (M. lewisii). The experiment in a line: SPR. For orientation: Surface plasmon resonance follows binding to a sensor surface in real time, without labels.

With GST-MlBOP (natural protein), the Kd is 1.44 µM.

“GST-bop-1 (GST-tagged MlBOP with the H39L point mutation) (natural protein)” had a Kd of 0.968 µM.

What is called Kd is the equilibrium constant for the complex coming apart. Low readings indicate tighter binding, high ones weaker binding.
